Key:
Assay in all cases: purified protein
purified protein [1] = substrate: COc1cc(-c2ccc(N)c(OC)c2)ccc1N; conditions: pH 5.5
purified protein [2] = substrate: NC(=O)c1ccc[n+]([C@@H]2O[C@H](COP(=O)(O)OP(=O)(O)OC[C@H]3O[C@@H](n4cnc5c(N)ncnc54)[C@H](O)[C@@H]3O)[C@@H](O)[C@H]2O)c1; conditions: pH 7.5
purified protein [3] = substrate: NNC(=O)c1ccncc1; conditions: pH 7.5

B1: WT-KatG (Mt-KatG, Mycobacterium tuberculosis catalase-peroxidase) (Mycobacterium tuberculosis H37Rv) (protein)
chain: MPEQHPPITETTTGAASNGCPVVGHMKYPVEGGGNQDWWPNRLNLKVLHQNPAVADPMGAAFDYAAEVATIDVDALTRDIEEVMTTSQPWWPADYGHYGPLFIRMAWHAAGTYRIHDGRGGAGGGMQRFAPLNSWPDNASLDKARRLLWPVKKKYGKKLSWADLIVFAGNCALESMGFKTFGFGFGRVDQWEPDEVYWGKEATWLGDERYSGKRDLENPLAAVQMGLIYVNPEGPNGNPDPMAAAVDIRETFRRMAMNDVETAALIVGGHTFGKTHGAGPADLVGPEPEAAPLEQMGLGWKSSYGTGTGKDAITSGIEVVWTNTPTKWDNSFLEILYGYEWELTKSPAGAWQYTAKDGAGAGTIPDPFGGPGRSPTMLATDLSLRVDPIYERITRRWLEHPEELADEFAKAWYKLIHRDMGPVARYLGPLVPKQTLLWQDPVPAVSHDLVGEAEIASLKSQIRASGLTVSQLVSTAWAAASSFRGSDKRGGANGGRIRLQPQVGWEVNDPDGDLRKVIRTLEEIQESFNSAAPGNIKVSFADLVVLGGCAAIEKAAKAAGHNITVPFTPGRTDASQEQTDVESFAVLEPKADGFRNYLGKGNPLPAEYMLLDKANLLTLSAPEMTVLVGGLRVLGANYKRLPLGVFTEASESLTNDFFVNLLDMGITWEPSPADDGTYQGKDGSGKVKWTGSRVDLVFGSNSELRALVEVYGADDAQPKFVQDFVAAWDKVMNLDRFDVR
- Km (purified protein [1]): 2.1 ± 0.8 µM
- kcat/Km (purified protein [1]): 3.1e+06 M⁻¹ s⁻¹
- Km (purified protein [2]): 210 ± 40 µM
- kcat/Km (purified protein [2]): 443 M⁻¹ s⁻¹
- Km (purified protein [3]): 1900 ± 100 µM
- kcat/Km (purified protein [3]): 50.6 M⁻¹ s⁻¹

Source: PMC10839757
